Patent US20240010735A1 (EISAI R AND D MANAGEMENT, published 2024)

Legend:
Assay in all cases: ELISA: SEAP-His proteins (1 nM) captured on anti-6-His antibody, antibody A 10 µg/mL with human IgG 100 µg/mL, HRP anti-mouse IgG, OD450 as % of human EphA4-SEAP-His
[1] = target: T1, human EphA1 extracellular region-SEAP-His protein (human, UniProt P21709 26-547)
T1 construct: extracellular domain; also called Eph receptor extracellular region-SEAP-His protein; not shown: secretory alkaline phosphatase (SEAP); histidine tag
T1 sequence (looked up): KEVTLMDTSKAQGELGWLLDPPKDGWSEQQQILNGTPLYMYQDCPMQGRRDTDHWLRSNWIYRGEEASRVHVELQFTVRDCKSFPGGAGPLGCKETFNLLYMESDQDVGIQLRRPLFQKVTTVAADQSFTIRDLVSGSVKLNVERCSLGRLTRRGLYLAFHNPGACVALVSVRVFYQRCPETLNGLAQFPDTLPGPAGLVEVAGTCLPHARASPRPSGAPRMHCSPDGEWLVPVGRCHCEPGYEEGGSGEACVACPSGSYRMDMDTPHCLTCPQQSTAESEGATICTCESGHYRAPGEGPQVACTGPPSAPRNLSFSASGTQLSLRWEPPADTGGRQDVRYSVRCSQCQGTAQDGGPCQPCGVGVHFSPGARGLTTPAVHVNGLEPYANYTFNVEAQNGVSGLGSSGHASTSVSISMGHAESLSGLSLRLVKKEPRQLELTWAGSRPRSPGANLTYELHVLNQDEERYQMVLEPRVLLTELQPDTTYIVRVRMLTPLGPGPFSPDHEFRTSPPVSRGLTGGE
Description: (§1) Rabbit anti-6-His antibodies (Bethel Laboratories) were coated onto the wells of a 96-well plate (Nunc). After incubating at 4° C. overnight, the wells were blocked at room temperature for 1 hour by 1% Block Ace (DS Pharma Biomedical). After washing 3 times with 0.05% Tween 20/PBS (Thermo […]), each Eph receptor of human extracellular region-SEAP-His protein (final concentration 1 nM) was seeded into each well, and incubated at room temperature for 1 hour. After washing 3 times, human IgG solution (100 μg/mL, Mitsubishi Pharma Corporation) and antibody A (10 μg/mL) were supplemented to the wells, and incubated at room temperature for 1 hour. Horseradish peroxidase-labeled donkey anti-mouse IgG antibody (Jackson ImmunoResearch Laboratories) was added, and incubated at room, temperature for 1 hour. After washing 3 times, TMBZ (3,3′,5,5′-tetramethylbenzidine, Sigma) solution was added to the wells, and upon confirmation of modest coloring, an equal amount of quenching solution (1 N H₂SO₄, Wako Pure Chemicals) was added to the wells, and absorbance at 450 nm was read by a microplate reader (PerkinElmer).

[2] = target: T2, human EphA2 extracellular region-SEAP-His protein (human, UniProt P29317 24-537)
T2 construct: extracellular domain; also called Eph receptor extracellular region-SEAP-His protein; not shown: secretory alkaline phosphatase (SEAP); histidine tag
T2 sequence (P29317 24-537): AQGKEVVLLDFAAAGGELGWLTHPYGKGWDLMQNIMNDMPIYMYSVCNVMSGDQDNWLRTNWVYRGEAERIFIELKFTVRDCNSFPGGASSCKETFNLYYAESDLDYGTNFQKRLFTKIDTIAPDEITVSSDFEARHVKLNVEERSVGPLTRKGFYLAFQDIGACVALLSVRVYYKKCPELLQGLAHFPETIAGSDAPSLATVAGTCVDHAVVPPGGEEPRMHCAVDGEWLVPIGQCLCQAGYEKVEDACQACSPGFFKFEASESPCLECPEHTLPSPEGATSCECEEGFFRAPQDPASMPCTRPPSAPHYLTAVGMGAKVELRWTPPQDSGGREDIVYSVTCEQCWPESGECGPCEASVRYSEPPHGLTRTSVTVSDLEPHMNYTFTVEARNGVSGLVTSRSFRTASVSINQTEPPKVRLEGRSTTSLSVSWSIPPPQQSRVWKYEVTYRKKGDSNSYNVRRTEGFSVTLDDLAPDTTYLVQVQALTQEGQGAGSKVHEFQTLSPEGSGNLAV
Description: as §1

[3] = target: T3, human EphB1 extracellular region-SEAP-His protein (human, UniProt P54762 18-540)
T3 construct: extracellular domain; also called Eph receptor extracellular region-SEAP-His protein; not shown: secretory alkaline phosphatase (SEAP); histidine tag
T3 sequence (looked up): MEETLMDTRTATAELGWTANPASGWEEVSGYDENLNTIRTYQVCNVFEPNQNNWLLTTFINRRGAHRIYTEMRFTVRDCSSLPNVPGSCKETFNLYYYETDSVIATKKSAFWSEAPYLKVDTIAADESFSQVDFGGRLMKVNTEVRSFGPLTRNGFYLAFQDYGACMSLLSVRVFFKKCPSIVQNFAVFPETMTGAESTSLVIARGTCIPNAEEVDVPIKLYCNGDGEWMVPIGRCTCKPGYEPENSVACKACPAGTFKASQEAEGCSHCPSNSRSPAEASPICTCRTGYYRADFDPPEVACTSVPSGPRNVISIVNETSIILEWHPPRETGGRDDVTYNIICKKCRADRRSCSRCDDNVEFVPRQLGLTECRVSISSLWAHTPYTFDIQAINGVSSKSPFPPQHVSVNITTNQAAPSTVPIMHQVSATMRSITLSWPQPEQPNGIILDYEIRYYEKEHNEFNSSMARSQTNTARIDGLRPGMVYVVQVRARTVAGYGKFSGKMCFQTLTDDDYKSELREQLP
Description: as §1

[4] = target: T4, human EphB2 extracellular region-SEAP-His protein (human, UniProt P29323 19-543)
T4 construct: extracellular domain; also called Eph receptor extracellular region-SEAP-His protein; not shown: secretory alkaline phosphatase (SEAP); histidine tag
T4 sequence (looked up): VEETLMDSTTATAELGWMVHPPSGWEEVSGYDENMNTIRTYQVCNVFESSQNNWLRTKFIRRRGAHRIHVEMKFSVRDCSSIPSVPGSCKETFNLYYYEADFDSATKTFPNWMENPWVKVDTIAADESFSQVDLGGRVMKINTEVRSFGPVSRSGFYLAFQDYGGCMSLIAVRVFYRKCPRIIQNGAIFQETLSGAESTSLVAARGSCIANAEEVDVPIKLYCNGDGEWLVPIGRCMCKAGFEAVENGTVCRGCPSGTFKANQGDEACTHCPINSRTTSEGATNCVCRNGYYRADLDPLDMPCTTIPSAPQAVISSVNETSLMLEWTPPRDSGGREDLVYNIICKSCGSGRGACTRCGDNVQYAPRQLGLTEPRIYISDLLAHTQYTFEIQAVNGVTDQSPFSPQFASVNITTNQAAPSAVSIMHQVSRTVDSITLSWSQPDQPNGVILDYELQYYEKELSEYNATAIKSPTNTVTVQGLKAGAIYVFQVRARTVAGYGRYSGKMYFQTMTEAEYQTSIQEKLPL
Description: as §1

Measured: binding result

B1: mouse anti-EphA4 monoclonal antibody (antibody A) (antibody, mouse IgG1, kappa, V domains shown)
VH: QVQLKQSGPSLVQPSQSLSITCTVSGFSLTRYGVHWVRQSPGKGLEWLGVIWRGGSTDYNAAFMSRLSITKDNSKSQVFFKMNSLQADDTAIYYCAKESLFGVYYDYGYYSMDYWGQGTSVTVSS
VL: DIQMTQSPSSLSASLGERVSLTCRASQEISGYLSWLQQKPDGTIKRLIYAASTLDSGVPKRFSGSRSGSDYSLTISSLESEDFADYYCLQYASYPLTFGAGTKLELKR
notes: purified from hybridoma supernatant
no binding (tested: 10 µg/mL): all assays above
